{
  "source": "paper PMC2855332",
  "molecular_target": "ovine PrP (VRQ allele), PrP^Sc aggregates from brains of prion-infected tg338 mice (sheep) (UniProt P23907)",
  "data": [
    {"substance": "ovine PrP (VRQ allele), PrP^Sc aggregates from brains of prion-infected tg338 mice (from UniProt P23907 25-233) (natural protein)", "values": [
      {"measurement": "stoichiometry N", "result": "12 to 30", "unit": "PrP monomers"}
    ]}
  ]
}
